Positions of bridges follow the written chain, without caps; N, C: chain ends. Non-standard residues stand in square brackets, D forms with d. No end group written: not given here. Pen = CC(C)(S)[C@H](N)C(=O)O; NMeA = CN[C@@H](C)C(=O)O; Sar = CNCC(=O)O
B1: Peptide No. 41 (peptide)
peptide: QRF[Pen]TGHFG[dR]LYPCNGP-NH2
modifications: disulfide 4-14; N-terminus assumed
SMILES: CC(C)C[C@@H]1NC(=O)[C@@H](CCCNC(=N)N)NC(=O)CNC(=O)[C@H](Cc2ccccc2)NC(=O)[C@H](Cc2c[nH]cn2)NC(=O)CNC(=O)[C@H]([C@@H](C)O)NC(=O)[C@@H](NC(=O)[C@H](Cc2ccccc2)NC(=O)[C@H](CCCNC(=N)N)NC(=O)[C@@H](N)CCC(N)=O)C(C)(C)SSC[C@@H](C(=O)N[C@@H](CC(N)=O)C(=O)NCC(=O)N2CCC[C@H]2C(N)=O)NC(=O)[C@@H]2CCCN2C(=O)[C@H](Cc2ccc(O)cc2)NC1=O
B2: Peptide No. 147 (peptide)
peptide: RF[Pen]TGHFG[Sar]YPCNGP-NH2
modifications: disulfide 3-12; N-terminus assumed
SMILES: C[C@@H](O)[C@@H]1NC(=O)[C@@H](NC(=O)[C@H](Cc2ccccc2)NC(=O)[C@@H](N)CCCNC(=N)N)C(C)(C)SSC[C@@H](C(=O)N[C@@H](CC(N)=O)C(=O)NCC(=O)N2CCC[C@H]2C(N)=O)NC(=O)[C@@H]2CCCN2C(=O)[C@H](Cc2ccc(O)cc2)NC(=O)CN(C)C(=O)CNC(=O)[C@H](Cc2ccccc2)NC(=O)[C@H](Cc2c[nH]cn2)NC(=O)CNC1=O
notes: printed RF-Pen-TGHFG-Sar-YPCNGP (no Leu after Sar)
B3: Peptide No. 246 (peptide)
peptide: RFVTGHFG[dP]WYPA-NH2
modifications: N-terminus assumed
SMILES: CC(C)[C@H](NC(=O)[C@H](Cc1ccccc1)NC(=O)[C@@H](N)CCCNC(=N)N)C(=O)N[C@H](C(=O)NCC(=O)N[C@@H](Cc1c[nH]cn1)C(=O)N[C@@H](Cc1ccccc1)C(=O)NCC(=O)N1CCC[C@@H]1C(=O)N[C@@H](Cc1c[nH]c2ccccc12)C(=O)N[C@@H](Cc1ccc(O)cc1)C(=O)N1CCC[C@H]1C(=O)N[C@@H](C)C(N)=O)[C@@H](C)O
B4: Peptide No. 239 (peptide)
peptide: RFXTGHFXXYPC
modifications: Pen3; X8 = 3(R)-amino-2-oxo-1-azepine acetic acid; NMeLeu9; disulfide; C-terminal amide
B5: Peptide No. 213 (peptide)
peptide: QRF[Pen][NMeA]GHFGGLYPCNGP-NH2
modifications: disulfide 4-14; N-terminus assumed
SMILES: CC(C)C[C@@H]1NC(=O)CNC(=O)CNC(=O)[C@H](Cc2ccccc2)NC(=O)[C@H](Cc2c[nH]cn2)NC(=O)CNC(=O)[C@H](C)N(C)C(=O)[C@@H](NC(=O)[C@H](Cc2ccccc2)NC(=O)[C@H](CCCNC(=N)N)NC(=O)[C@@H](N)CCC(N)=O)C(C)(C)SSC[C@@H](C(=O)N[C@@H](CC(N)=O)C(=O)NCC(=O)N2CCC[C@H]2C(N)=O)NC(=O)[C@@H]2CCCN2C(=O)[C@H](Cc2ccc(O)cc2)NC1=O

Biological target: T1, soluble human FcRn (shFcRn) (human, UniProt P55899 24-297; P61769 21-119, biotinylated with Sulfo-NHS-LC-Biotin in the ELISA; amine-coupled to a CM5 chip in SPR)
T1 construct: it is added here as the usual partner chain of FcRn; also called biotinylated shFcRn
Assay: SPR, pH 7.4

T1 sequence (P55899 24-297 limits assumed, chain 1 of 2): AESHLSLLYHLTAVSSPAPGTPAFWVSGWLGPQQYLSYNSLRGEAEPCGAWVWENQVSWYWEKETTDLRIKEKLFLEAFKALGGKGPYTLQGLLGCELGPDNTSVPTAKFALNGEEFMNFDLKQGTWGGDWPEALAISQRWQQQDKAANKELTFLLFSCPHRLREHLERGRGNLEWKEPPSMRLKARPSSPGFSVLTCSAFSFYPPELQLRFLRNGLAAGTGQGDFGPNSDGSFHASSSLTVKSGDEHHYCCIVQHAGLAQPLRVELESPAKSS
T1 sequence (P61769 21-119 limits assumed, chain 2 of 2): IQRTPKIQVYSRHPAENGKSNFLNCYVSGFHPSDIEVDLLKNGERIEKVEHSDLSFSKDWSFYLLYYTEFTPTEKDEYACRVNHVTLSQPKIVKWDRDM

Binder	Kd [nM]
RFXTGKFGXXYPC (Pen3; Sar9; NMeLeu10; disulfide; C-terminal amide) [Peptide No. 255]	1100
RFXTGRFGXXYPC (Pen3; Sar9; NMeLeu10; disulfide; C-terminal amide) [Peptide No. 256]	500
RFXTGFFGXXYPC (Pen3; Sar9; NMeLeu10; disulfide; C-terminal amide) [Peptide No. 265]	4200

Biological target: T1, soluble human FcRn (shFcRn)
Assay: SPR, pH 6
Method: (§1) The following steps were performed to cross-link soluble human or cynomolgus FcRn to the dextran surface of a CM5 sensor chip (Biacore AB, Uppsala, Sweden) by an amine coupling reaction involving 1-ethyl-(3-dimethylaminopropyl)-carbodiimide hydrochloride (EDC) (Biacore AB, Uppsala, Sweden) and N-hydroxysuccinimide (NHS) (Biacore AB, Uppsala, Sweden) as recommended by Biacore (BIAapplications Handbook, version AB, section 4.2, Biacore AB, Uppsala, Sweden). The FcRn protein was diluted in 50 mM sodium acetate, pH 4.5 (Biacore AB, Uppsala, Sweden) to a concentration of 10 to 30 µg/ml and used to coat one flow cell on the sensor chip. Residual sites on the FcRn flow cell were blocked with 1 M ethanolamine hydrochloride pH 8.5 (Biacore AB, Uppsala, Sweden). A control flow cell was blocked with ethanolamine for reference subtraction. For analysis of the monomeric peptides, FcRn was coated to a final density of 4000-5000 response units (RU). For analysis of the peptide dimers, FcRn was coated to a density of 2000-2500 RU. All SPR measurements were performed using a BIACORE 3000 Instrument (Biacore AB Uppsala, Sweden). For measurements done at either pH 6 or pH 7.4, experiments were performed in 50 mM phosphate, 100 mM sodium chloride, 0.01% surfactant P20 (Biacore AB, Uppsala, Sweden).
(§2) A. Representative Procedure for the Determination of Binding Constant of Monomeric Peptides Ten 2-fold dilutions of the peptide were injected over the FcRn-CM5 chip at a rate of 20 µl/min for 2 min. The peptide was dissociated from the chip for 2.5 minutes with buffer. Any remaining peptide was removed from the chip with a 30 second injection of HBS-P buffer (Biacore AB, Uppsala, Sweden) at a rate of 30 µl/min. Sensorgrams were generated and analyzed using BiaEval software version 3.1 (Biacore AB, Uppsala, Sweden). The equilibrium RU observed for each injection was plotted against concentration. The equilibrium K_D values were derived by analysis of the plots using the steady state affinity model included in the BiaEval software.

Binder	Kd [nM]
B1	830
QRFXTGHFXGLYPCNGP (Pen4; D-Pro9; disulfide; C-terminal amide) [Peptide No. 48]	790
QRFVTGHFGXLYPANGP (D-Pro10; unbridged; C-terminal amide) [Peptide No. 157]	16000
QRFVTGHFGXWYPANGP (D-Pro10; unbridged; C-terminal amide) [Peptide No. 177]	5800
QRFVTGHFGXWYPINGP (D-Pro10; unbridged; C-terminal amide) [Peptide No. 190]	4200
QRFXTGHFGXLYPCNGP (Pen4; D-Ile10; disulfide; C-terminal amide) [Peptide No. 43]	2200
B2	58
RFXTGKFGXXYPC (Pen3; Sar9; NMeLeu10; disulfide; C-terminal amide) [Peptide No. 255]	1300
RFXTGRFGXXYPC (Pen3; Sar9; NMeLeu10; disulfide; C-terminal amide) [Peptide No. 256]	500
RFXTGFFGXXYPC (Pen3; Sar9; NMeLeu10; disulfide; C-terminal amide) [Peptide No. 265]	3300
B3	3600
QRFXTGHFGXWYPCNGP (Pen4; Sar10; disulfide; C-terminal amide) [Peptide No. 238]	68
B4	44
QRFXTGHFXGLYPCNGP (Pen4; D-Asp9; disulfide; C-terminal amide) [Peptide No. 47]	580
QRFCTGHFXXLYPCNGP (D-Ala9; D-Ala10; disulfide; C-terminal amide) [Peptide No. 24]	22000
RFXTGHFGGXYPCNGP (Pen3; NMeLeu10; disulfide; C-terminal amide) [Peptide No. 146]	59
B5	1000
QRFXTGHFGXXYPCNGP (Pen4; Sar10; NMeLeu11; disulfide; C-terminal amide) [Peptide No. 187]	46
QRFXTGHFGXLYPCNGP (Pen4; D-His10; disulfide; C-terminal amide) [Peptide No. 42]	2000

Biological target: T1, soluble human FcRn (shFcRn)
Assay: SPR, pH 7.4
Remark: another data set of the same source
Method: as §1, with “All SPR measurements were performed using a BIACORE 3000 Instrument (Biacore AB Uppsala, Sweden). For measurements done at either pH 6 or pH 7.4, experiments were performed in 50 mM phosphate, 100 mM sodium chloride, 0.01% surfactant P20 (Biacore AB, Uppsala, Sweden).” left out
A. Representative Procedure for the Determination of Binding Constant of Monomeric Peptides Ten 2-fold dilutions of the peptide were injected over the FcRn-CM5 chip at a rate of 20 µl/min for 2 min. […] Sensorgrams were generated and analyzed using BiaEval software version 3.1 (Biacore AB, Uppsala, Sweden). […]

Binder	Kd [nM]
QRFXTGHFGXXYPCNGP (Pen4; Sar10; NMeLeu11; disulfide; C-terminal amide) [Peptide No. 187]	230

Biological target: T1, soluble human FcRn (shFcRn)
Assay: competition ELISA vs human IgG
Method: (§3) The wells were coated with 100 μl/well of 1 μg/ml biotinylated-shFcRn in Buffer A. The plate was sealed and incubated at 37° C. for 2 hours. Afterwards, the plate was washed with 200 μl/well of Buffer B (Buffer B: 100 mM MES pH 6, 150 mM NaCl, 0.5% BSA IgG-free (Jackson ImmunoResearch, West Grove, Pa.), 0.05% Tween-20). […] To allow for mixing, the plate was rocked for 2 minutes, sealed and incubated at 37° C. for 2 hours. […] The plate was covered, incubated for 30 minutes at room temperature and washed 4 times with 200 μl/well of ice-cold buffer B. SureBlue TMB substrate solution (100 μl/well, KPL, Gaithersburg, Md.) was added and the plate was allowed to incubate at room temperature until color developed, which took 5 to 10 minutes. Once color developed, 100 μl/well of TMB stop solution (KPL, Gaithersburg, Md.) was added and the absorbance was measured at 450 nm.

Binder	IC50 [µM]
QRFXTGHFXXXYPCNGP (Pen4; D-Ala9; Sar10; NMeLeu11; disulfide; C-terminal amide) [Peptide No. 188]	6.5
QRFXTGHFGXXYPCNGP (Pen4; Sar10; NMeLeu11; disulfide; C-terminal amide) [Peptide No. 187]	0.42

Biological target: T1, soluble human FcRn (shFcRn)
Assay: competition ELISA vs human IgG
Remark: another data set of the same source
Method: as §3

Binder	IC50 [µM]
B1	8.1
QRFXTGHFXGLYPCNGP (Pen4; D-Pro9; disulfide; C-terminal amide) [Peptide No. 48]	5
QRFVTGHFGXLYPANGP (D-Pro10; unbridged; C-terminal amide) [Peptide No. 157]	195
QRFVTGHFGXWYPANGP (D-Pro10; unbridged; C-terminal amide) [Peptide No. 177]	52
QRFVTGHFGXWYPINGP (D-Pro10; unbridged; C-terminal amide) [Peptide No. 190]	49
QRFXTGHFGXLYPCNGP (Pen4; D-Ile10; disulfide; C-terminal amide) [Peptide No. 43]	18
B2	1
QRFCTGHFXGLYPCNGP (D-Ala9; disulfide; C-terminal amide) [Peptide No. 22]	48
RFXTGKFGXXYPC (Pen3; Sar9; NMeLeu10; disulfide; C-terminal amide) [Peptide No. 255]	40
RFXTGRFGXXYPC (Pen3; Sar9; NMeLeu10; disulfide; C-terminal amide) [Peptide No. 256]	5.5
B3	60
QRFXTGHFGXWYPCNGP (Pen4; Sar10; disulfide; C-terminal amide) [Peptide No. 238]	1
B4	0.62
QRFCTGHFXXLYPCNGP (D-Ala9; D-Ala10; disulfide; C-terminal amide) [Peptide No. 24]	69
RFXTGHFGGXYPCNGP (Pen3; NMeLeu10; disulfide; C-terminal amide) [Peptide No. 146]	2.1
B5	5.5
QRFXTGHFGXXYPCNGP (Pen4; Sar10; NMeLeu11; disulfide; C-terminal amide) [Peptide No. 187]	0.42

Biological target: T1, soluble human FcRn (shFcRn)
Assay: SPR, pH 6
Remark: another data set of the same source
Method: as §1, §2

Binder	Kd [nM]
QRFXTGHFXXXYPCNGP (Pen4; D-Ala9; Sar10; NMeLeu11; disulfide; C-terminal amide) [Peptide No. 188]	730
QRFXTGHFGXXYPCNGP (Pen4; Sar10; NMeLeu11; disulfide; C-terminal amide) [Peptide No. 187]	46

Biological target: T1, soluble human FcRn (shFcRn)
Assay: SPR, pH 7.4
Remark: another data set of the same source
Method: as §1, §2

Binder	Kd [µM]
B1	8.8
QRFXTGHFXGLYPCNGP (Pen4; D-Pro9; disulfide; C-terminal amide) [Peptide No. 48]	21
QRFVTGHFGXWYPANGP (D-Pro10; unbridged; C-terminal amide) [Peptide No. 177]	96
QRFXTGHFGXLYPCNGP (Pen4; D-Ile10; disulfide; C-terminal amide) [Peptide No. 43]	41
B2	0.35
QRFCTGHFXGLYPCNGP (D-Ala9; disulfide; C-terminal amide) [Peptide No. 22]	137
QRFCTGHFGXLYPCNGP (D-Ala10; disulfide; C-terminal amide) [Peptide No. 23]	184
QRFXTGHFXGLYPCNGP (Pen4; D-Asp9; disulfide; C-terminal amide) [Peptide No. 47]	4.9
QRFCTGHFXXLYPCNGP (D-Ala9; D-Ala10; disulfide; C-terminal amide) [Peptide No. 24]	> 250
RFXTGHFGGXYPCNGP (Pen3; NMeLeu10; disulfide; C-terminal amide) [Peptide No. 146]	0.28
QRFXTGHFGXXYPCNGP (Pen4; Sar10; NMeLeu11; disulfide; C-terminal amide) [Peptide No. 187]	0.23
QRFXTGHFGXLYPCNGP (Pen4; D-His10; disulfide; C-terminal amide) [Peptide No. 42]	20

Reference: patent US8906844B2 (SYNTONIX PHARMACEUTICALS, dated 2014)
